Source: article PMC10397247

Experiments:
Experiment in all cases: two-hybrid library CCNG1;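 note: natural log of median RNA to DNA barcode read ratio; higher means stronger binding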
4H3601-bH = target: T1, 4H3601-bH
T1 chain: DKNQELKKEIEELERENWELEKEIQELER

4H4038-bH = target: T2, 4H4038-bH
T2 chain: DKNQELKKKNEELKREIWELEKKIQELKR

4H3907-bH = target: T3, 4H3907-bH
T3 chain: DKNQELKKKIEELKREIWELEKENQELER

4H3592-bH = target: T4, 4H3592-bH
T4 chain: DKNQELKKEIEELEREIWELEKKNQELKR

4H491-bN = target: T5, 4H491-bN
T5 chain: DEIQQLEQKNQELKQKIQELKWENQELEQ

4H48-bN = target: T6, 4H48-bN
T6 chain: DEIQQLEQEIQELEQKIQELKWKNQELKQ

4H342-bN = target: T7, 4H342-bN
T7 chain: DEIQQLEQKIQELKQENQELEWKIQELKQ

4H2944-bN = target: T8, 4H2944-bN
T8 chain: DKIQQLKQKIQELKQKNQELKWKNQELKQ

4H477-bA = target: T9, 4H477-bA
T9 chain: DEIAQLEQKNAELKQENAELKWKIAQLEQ

4H741-bA = target: T10, 4H741-bA
T10 chain: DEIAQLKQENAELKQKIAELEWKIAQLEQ

4H319-bA = target: T11, 4H319-bA
T11 chain: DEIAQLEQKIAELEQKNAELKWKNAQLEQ

4H3277-bA = target: T12, 4H3277-bA
T12 chain: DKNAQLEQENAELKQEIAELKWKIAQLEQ

4H3057-bA = target: T13, 4H3057-bA
T13 chain: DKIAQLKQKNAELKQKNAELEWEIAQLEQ

O11-bA = target: T14, O11-bA
T14 chain: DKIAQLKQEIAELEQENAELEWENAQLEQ

4H348-bA = target: T15, 4H348-bA
T15 chain: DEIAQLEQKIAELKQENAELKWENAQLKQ

4H40-bA = target: T16, 4H40-bA
T16 chain: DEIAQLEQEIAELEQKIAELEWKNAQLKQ

4H2915-bA = target: T17, 4H2915-bA
T17 chain: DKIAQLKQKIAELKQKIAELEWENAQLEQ

4H3855-bN = target: T18, 4H3855-bN
T18 chain: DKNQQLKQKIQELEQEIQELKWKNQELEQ

4H492-bA = target: T19, 4H492-bA
T19 chain: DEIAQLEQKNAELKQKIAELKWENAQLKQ

B1: 4H3592-bH (peptide)
chain: DKNQELKKEIEELEREIWELEKKNQELKR
With B1 the interaction score (4H3601-bH) was -0.0581, the interaction score (4H4038-bH) was -0.403 and the interaction score (4H3907-bH) was 1.02. For the same binder, the interaction score (4H3592-bH) was 0.863.

B2: 4H2944-bN (peptide)
chain: DKIQQLKQKIQELKQKNQELKWKNQELKQ
With B2 the interaction score (4H491-bN) was -0.954, the interaction score (4H48-bN) was -0.0947 and the interaction score (4H342-bN) was -0.943. The interaction score (4H2944-bN) was -0.735.

B3: 4H2915-bA (peptide)
chain: DKIAQLKQKIAELKQKIAELEWENAQLEQ
Work on B3 yielded an interaction score (4H477-bA) of -1.05, an interaction score (4H741-bA) of -0.66 and an interaction score (4H319-bA) of 1.12. The interaction score (4H3277-bA) was -1.17, the interaction score (4H3057-bA) was -0.856 and the interaction score (O11-bA) was 0.236. It also gave an interaction score (4H348-bA) of -1.42, an interaction score (4H40-bA) of 1.35 and an interaction score (4H2915-bA) of 0.656. For the same binder, the interaction score (4H3855-bN) was 0.188 and the interaction score (4H492-bA) was -1.03.
